Results taken from paper PMC4150770.

Columns and labels:
[1] = biological target: 43S·mRNA preinitiation complex assembled with WT eIF5 (40S subunits, eIF1, eIF5, eIF2·GDPNP·Met-tRNAi ternary complex, model mRNA) (yeast) (UniProt P32911); experiment: fluorescence polarisation; dissociation kinetics by fluorescence anisotropy, 43S·mRNA(UUG) complexes: 15 nM eIF1A-Fl, 1 μM eIF1, 1 μM eIF5 variant, 120 nM 40S, 10 μM mRNA(UUG), 300 nM eIF2, 150 nM Met-tRNAi, 1 mM GDPNP·Mg2+; chase with 15 μM unlabeled eIF1A; 30 mM HEPES pH 7.4, 100 mM potassium acetate, 3 mM Mg(OAc)2, 2 mM DTT; double exponential fit (k1 fast phase, open state; k2 slow phase, closed state)
[2] = biological target: 43S·mRNA preinitiation complex assembled with eIF5-G31R (yeast) (UniProt P32911); experiment: as above
[3] = biological target: 43S·mRNA preinitiation complex assembled with eIF5-G31R,M18V (yeast) (UniProt P32911); experiment: as above
[4] = biological target: 43S·mRNA preinitiation complex assembled with eIF5-G31R,G62S (yeast) (UniProt P32911); experiment: as above
[5] = biological target: 43S·mRNA preinitiation complex assembled with eIF5-M18V (yeast) (UniProt P32911); experiment: as above
[6] = biological target: 43S·mRNA preinitiation complex assembled with eIF5-G62S (yeast) (UniProt P32911); experiment: as above
[7] = biological target: 43S·mRNA preinitiation complex assembled with WT eIF5 (40S subunits, eIF1, eIF5, eIF2·GDPNP·Met-tRNAi ternary complex, model mRNA) (yeast) (UniProt P32911); experiment: fluorescence polarisation; dissociation kinetics by fluorescence anisotropy, 43S·mRNA(AUG) complexes: 15 nM eIF1A-Fl, 1 μM eIF1, 1 μM eIF5 variant, 120 nM 40S, 10 μM mRNA(AUG), 300 nM eIF2, 150 nM Met-tRNAi, 1 mM GDPNP·Mg2+; chase with 15 μM unlabeled eIF1A; 30 mM HEPES pH 7.4, 100 mM potassium acetate, 3 mM Mg(OAc)2, 2 mM DTT; double exponential fit (k1 fast phase, open state; k2 slow phase, closed state)
[8] = biological target: 43S·mRNA preinitiation complex assembled with eIF5-G31R (yeast) (UniProt P32911); experiment: as above
[9] = biological target: 43S·mRNA preinitiation complex assembled with eIF5-G31R,M18V (yeast) (UniProt P32911); experiment: as above
[10] = biological target: 43S·mRNA preinitiation complex assembled with eIF5-G31R,G62S (yeast) (UniProt P32911); experiment: as above
[11] = biological target: 43S·mRNA preinitiation complex assembled with eIF5-M18V (yeast) (UniProt P32911); experiment: as above
[12] = biological target: 43S·mRNA preinitiation complex assembled with eIF5-G62S (yeast) (UniProt P32911); experiment: as above

eIF1A labeled at its C-terminus with fluorescein (from UniProt P38912 1-153) (natural protein)
k1 (dissociation rate constant, fast phase, open state) [1]: 0.011 s⁻¹
k2 (dissociation rate constant, slow phase, closed state) [1]: 0.0011 s⁻¹
k1 (dissociation rate constant, fast phase, open state) [2]: 0.008 s⁻¹
k2 (dissociation rate constant, slow phase, closed state) [2]: 0.0005 s⁻¹
k1 (dissociation rate constant, fast phase, open state) [3]: 0.018 s⁻¹
k2 (dissociation rate constant, slow phase, closed state) [3]: 0.0003 s⁻¹
k1 (dissociation rate constant, fast phase, open state) [4]: 0.026 s⁻¹
k2 (dissociation rate constant, slow phase, closed state) [4]: 0.004 s⁻¹
k1 (dissociation rate constant, fast phase, open state) [5]: 0.011 s⁻¹
k2 (dissociation rate constant, slow phase, closed state) [5]: 0.0012 s⁻¹
k1 (dissociation rate constant, fast phase, open state) [6]: 0.025 s⁻¹
k2 (dissociation rate constant, slow phase, closed state) [6]: 0.002 s⁻¹
k1 (dissociation rate constant, fast phase, open state) [7]: 0.007 s⁻¹
k2 (dissociation rate constant, slow phase, closed state) [7]: 0.0004 s⁻¹
k1 (dissociation rate constant, fast phase, open state) [8]: 0.016 s⁻¹
k2 (dissociation rate constant, slow phase, closed state) [8]: 0.005 s⁻¹
k1 (dissociation rate constant, fast phase, open state) [9]: 0.025 s⁻¹
k2 (dissociation rate constant, slow phase, closed state) [9]: 0.002 s⁻¹
k1 (dissociation rate constant, fast phase, open state) [10]: 0.018 s⁻¹
k2 (dissociation rate constant, slow phase, closed state) [10]: 0.003 s⁻¹
k1 (dissociation rate constant, fast phase, open state) [11]: 0.003 s⁻¹
k2 (dissociation rate constant, slow phase, closed state) [11]: 0.0003 s⁻¹
k1 (dissociation rate constant, fast phase, open state) [12]: 0.018 s⁻¹
k2 (dissociation rate constant, slow phase, closed state) [12]: 0.003 s⁻¹
